Reference: patent US20230167174A1 (Novartis, published 2023)
Values belong to the binder of their own block, whether it stands above or below them.

Tests used:
[1] = target: T1, hTREM2 IgSF-hTREM1 stalk-hFc (human, UniProt Q9NZC2 19-132; Q9NP99 135-205, limits assumed); experiment: recombinant protein binding
T1 construct: domain: IgSF;domain: stalk region; also called hTREM2 IgSF-T1 stalk-hFc-bio; hTREM2 IgSF-hTREM1 stalk-hFc-bio
T1 sequence (looked up): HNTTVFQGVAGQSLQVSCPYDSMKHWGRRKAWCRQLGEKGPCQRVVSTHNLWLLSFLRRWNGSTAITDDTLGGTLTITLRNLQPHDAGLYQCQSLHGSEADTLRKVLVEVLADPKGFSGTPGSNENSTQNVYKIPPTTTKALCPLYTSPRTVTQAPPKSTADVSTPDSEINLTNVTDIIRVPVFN

[2] = target: T2, human TREM2 on CHO-hDAP12-hTREM2 cells (human, UniProt Q9NZC2 19-230); experiment: cell-based or functional assay
T2 sequence: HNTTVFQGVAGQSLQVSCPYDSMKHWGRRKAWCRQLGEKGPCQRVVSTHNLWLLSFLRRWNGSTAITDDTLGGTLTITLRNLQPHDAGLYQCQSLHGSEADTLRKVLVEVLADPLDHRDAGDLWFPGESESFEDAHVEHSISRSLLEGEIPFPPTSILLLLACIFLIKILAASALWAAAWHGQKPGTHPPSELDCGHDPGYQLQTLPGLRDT

[3] = target: T3, TREM2 (isoform 3) on transfected HEK293 cells (human); experiment: plasma membrane protein cell array, HEK293
T3 construct: also called BC032362
T3 chain: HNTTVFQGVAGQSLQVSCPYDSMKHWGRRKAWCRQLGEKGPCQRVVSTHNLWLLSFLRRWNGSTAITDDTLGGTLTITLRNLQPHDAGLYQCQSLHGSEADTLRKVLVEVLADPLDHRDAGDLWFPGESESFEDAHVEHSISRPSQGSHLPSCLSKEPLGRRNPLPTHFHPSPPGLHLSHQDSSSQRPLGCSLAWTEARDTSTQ
Experimental: Human HEK293 cells were grown on glass slides and fixed. Test antibodies were added at 2 µg/ml. Slides were subsequently incubated with an AlexaFluor647 labelled anti-human IgG Fc detection antibody, followed by fluorescence imaging.

[4] = target: T4, cyTREM2 ECD (19-174)-APP-Avi (cynomolgus); experiment: SET
T4 construct: range 19-174

[5] = target: T4, cyTREM2 ECD (19-174)-APP-Avi; experiment: SPR, label free kinetics
[6] = target: T4, cyTREM2 ECD (19-174)-APP-Avi; experiment: SPR (Biacore)

S/BG [1]: > 20
Internalization compared to parental after 6 h [2]: 1.5 fold
binding result [3]: binds
Kd [4]: 0.039 nM
Kd [5]: 0.039 nM
B1: MOR044698 (antibody, V domains shown)
VH: QVQLVQSGAEVKKPGASVKVSCKASGYTFTGYHMSWVRQAPGQGLEWMGVINPVSGNTVYAQKFQGRVTMTRDTSISTAYMELSRLRSEDTAVYYCARIPSYTYAFDYWGQGTLVTVSS
VL: DIQMTQSPSSLSASVGDRVTITCRASQDISNYLAWYQQKPGKAPKLLIYRASSLQSGVPSRFSGSGSGTDFTLTISSLQPEDFATYYCFQYRHMPSQTFGQGTKVEIKR
notes: also called MOR44698; MOR44698A

Kd [6]: 6.6 nM
B2: MOR042596 (antibody, human IgG1, kappa, L234A L235A, V domains shown)
VH: B1 VH
VL: DIQMTQSPSSLSASVGDRVTITCRASQDISNYLAWYQQKPGKAPKLLIYRASSLQSGVPSRFSGSGSGTDFTLTISSLQPEDFATYYCQQHGHSPTTFGQGTKVEIKR
notes: full IgG; also called MOR42596
